Results taken from article PMC10976854.
Several values for one entry are separate records, joined by “and”; a condition that tells them apart may be missing. Identical values can stand only once.

Tests used:
[1] = biological target: collagenase-cleaved xZP2-N2N3 (Xenopus); assay: native MS
[2] = biological target: collagenase-cleaved xZP2-N2N3 (Xenopus); assay: SEC-MALS
[3] = biological target: Xenopus egg exudate-cleaved xZP2-N2N3 (Xenopus); assay: native MS
[4] = biological target: Xenopus egg exudate-cleaved xZP2-N2N3 (Xenopus); assay: SEC-MALS

Row | stoichiometry N [1] | stoichiometry N [2] | stoichiometry N [3] | stoichiometry N [4] | Binder
1 | 4 | 4 |  |  | collagenase-cleaved xZP2-N2N3 (domain or fragment, modifications not checked) chain 1: DEPGSSVVTCTKDSMTVRIPRTLSGFDDEIP chain 2: VAAPSFWDLEVKFTGQTSLLGMSEARQRGYQFSSDPYYLTVQASYSAFGLNVFNLENQRLYVADLRLVSQFGSPRISIDTPMICARDSPSCNSTHATVLIPFFGGVLTGINVNSVNIQLSSYSLQQHGITLDSRNGYRLYIKRSTLKGDRNDVLVLTFIYYGKTVPMLISLVCSGGSN
2 |  |  | 2 and 4 | 4 and 2 | Xenopus egg exudate-cleaved xZP2-N2N3 (domain or fragment, modifications not checked) chain 1: DEPGSSVVTCTKDSMTVRIPRTLSGFDDEIP chain 2: VAAPSFWDLEVKFTGQTSLLGMSEARQRGYQFSSDPYYLTVQASYSAFGLNVFNLENQRLYVADLRLVSQFGSPRISIDTPMICARDSPSCNSTHATVLIPFFGGVLTGINVNSVNIQLSSYSLQQHGITLDSRNGYRLYIKRSTLKGDRNDVLVLTFIYYGKTVPMLISLVCSGGSN
